The target in one assay is T1, H3K9me1 peptide (UniProt P59226 2-16, monomethyl-lysine at K9).
T1 peptide (looked up): ARTKQTARKSTGGKA
The assay is described as follows: ITC; reference is the unmodified H3 peptide. (In general: ITC needs no label: the signal is the heat of the interaction.)

Another assay deals with T2, H3(1-15)K9me2 peptide (UniProt P59226 2-16, dimethyl-lysine at K9).
T2 construct: range 2-16; Residues 1-15 are stated for the peptide in the crystal structure; also called H3K9me2 peptide; H3K9me2
T2 peptide (looked up): ARTKQTARKSTGGKA
The assay is described as follows: ITC; reference is the unmodified H3 peptide.

The target in the next assay is T3, H3K9me3 peptide (UniProt P59226 2-16, trimethyl-lysine at K9).
T3 peptide (looked up): ARTKQTARKSTGGKA
The assay is described as follows: ITC; reference is the unmodified H3 peptide.

The target of a further assay is T4, NRPE1-Flag (Pol V) (Arabidopsis thaliana, UniProt Q5D869 1-1976).
T4 construct: Bait for the purification of the Pol V complex; also called Flag-tagged Pol V; not shown: Flag tag
T4 sequence (Q5D869 whole entry): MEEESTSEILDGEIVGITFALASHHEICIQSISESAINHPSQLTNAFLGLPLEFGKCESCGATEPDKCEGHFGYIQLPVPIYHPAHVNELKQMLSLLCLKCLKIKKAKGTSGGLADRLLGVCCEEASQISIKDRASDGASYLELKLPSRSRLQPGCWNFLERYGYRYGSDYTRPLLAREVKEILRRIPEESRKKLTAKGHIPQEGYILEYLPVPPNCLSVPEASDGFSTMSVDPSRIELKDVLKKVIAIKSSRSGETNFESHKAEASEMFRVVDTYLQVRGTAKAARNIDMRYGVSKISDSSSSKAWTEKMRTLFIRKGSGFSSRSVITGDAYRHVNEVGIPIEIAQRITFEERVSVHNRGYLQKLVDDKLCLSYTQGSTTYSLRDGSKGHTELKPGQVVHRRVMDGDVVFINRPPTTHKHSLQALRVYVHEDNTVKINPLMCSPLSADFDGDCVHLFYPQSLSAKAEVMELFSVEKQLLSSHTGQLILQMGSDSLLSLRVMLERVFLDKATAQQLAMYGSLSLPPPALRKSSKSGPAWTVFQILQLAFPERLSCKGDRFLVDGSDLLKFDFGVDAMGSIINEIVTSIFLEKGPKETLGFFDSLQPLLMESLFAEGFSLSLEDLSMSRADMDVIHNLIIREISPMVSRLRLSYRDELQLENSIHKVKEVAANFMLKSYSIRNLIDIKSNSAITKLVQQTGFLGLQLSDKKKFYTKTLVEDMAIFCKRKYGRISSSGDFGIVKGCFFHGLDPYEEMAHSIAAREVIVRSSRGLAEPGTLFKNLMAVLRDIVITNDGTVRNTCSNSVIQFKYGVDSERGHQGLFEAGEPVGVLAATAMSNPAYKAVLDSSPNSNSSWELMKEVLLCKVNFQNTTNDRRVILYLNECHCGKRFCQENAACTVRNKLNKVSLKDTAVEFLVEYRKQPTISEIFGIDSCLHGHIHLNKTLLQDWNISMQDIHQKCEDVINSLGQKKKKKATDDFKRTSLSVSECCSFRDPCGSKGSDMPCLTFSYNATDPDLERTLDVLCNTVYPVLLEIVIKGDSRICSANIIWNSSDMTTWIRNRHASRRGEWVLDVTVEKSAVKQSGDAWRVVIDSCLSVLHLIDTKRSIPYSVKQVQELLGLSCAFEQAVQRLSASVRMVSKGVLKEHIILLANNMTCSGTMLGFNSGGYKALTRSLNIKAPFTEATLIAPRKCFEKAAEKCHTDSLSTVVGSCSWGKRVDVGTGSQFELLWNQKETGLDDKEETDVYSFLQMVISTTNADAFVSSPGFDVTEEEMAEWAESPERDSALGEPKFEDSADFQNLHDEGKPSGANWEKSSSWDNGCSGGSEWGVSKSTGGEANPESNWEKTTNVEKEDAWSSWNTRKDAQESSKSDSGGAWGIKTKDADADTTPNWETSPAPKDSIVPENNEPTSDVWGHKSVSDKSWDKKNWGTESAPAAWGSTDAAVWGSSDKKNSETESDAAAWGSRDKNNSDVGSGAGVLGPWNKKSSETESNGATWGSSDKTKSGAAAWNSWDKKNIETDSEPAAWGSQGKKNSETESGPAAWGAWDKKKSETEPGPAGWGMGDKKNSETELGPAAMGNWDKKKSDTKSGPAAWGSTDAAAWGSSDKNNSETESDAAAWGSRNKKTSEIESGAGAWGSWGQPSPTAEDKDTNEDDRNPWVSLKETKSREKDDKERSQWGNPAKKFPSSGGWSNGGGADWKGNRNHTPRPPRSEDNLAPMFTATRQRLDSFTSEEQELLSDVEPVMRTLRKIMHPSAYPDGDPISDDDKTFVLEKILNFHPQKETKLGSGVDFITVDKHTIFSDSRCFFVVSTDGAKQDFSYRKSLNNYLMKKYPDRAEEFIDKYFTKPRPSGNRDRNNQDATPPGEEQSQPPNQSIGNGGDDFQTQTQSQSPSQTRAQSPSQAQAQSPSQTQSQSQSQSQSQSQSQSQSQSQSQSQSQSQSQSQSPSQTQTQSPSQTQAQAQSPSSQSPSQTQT
The assay is described as follows: immunoprecipitation and mass spectrometry.

B1: SHH1 SAWADEE domain (residues 125-258) (other)
chain: ADLAFEAKSARDYAWYDVSSFLTYRVLRTGELEVRVRFSGFDNRHDEWVNVKTSVRERSIPVEPSECGRVNVGDLLLCFQEREDQALYCDGHVLNIKRGIHDHARCNCVFLVRYELDNTEESLGLERICRRPEE
On to B1, for which the “fold higher affinity than with unmodified H3 peptides” value in the assay with H3K9me1 peptide, in the assay with H3(1-15)K9me2 peptide and in the assay with H3K9me3 peptide was roughly 17 fold each time.

B2: SUVH9 (other)
chain: MGSSHIPLDPSLNPSPSLIPKLEPVTESTQNLAFQLPNTNPQALISSAVSDFNEATDFSSDYNTVAESARSAFAQRLQRHDDVAVLDSLTGAIVPVEENPEPEPNPYSTSDSSPSVATQRPRPQPRSSELVRITDVGPESERQFREHVRKTRMIYDSLRMFLMMEEAKRNGVGGRRARADGKAGKAGSMMRDCMLWMNRDKRIVGSIPGVQVGDIFFFRFELCVMGLHGHPQSGIDFLTGSLSSNGEPIATSVIVSGGYEDDDDQGDVIMYTGQGGQDRLGRQAEHQRLEGGNLAMERSMYYGIEVRVIRGLKYENEVSSRVYVYDGLFRIVDSWFDVGKSGFGVFKYRLERIEGQAEMGSSVLKFARTLKTNPLSVRPRGYINFDISNGKENVPVYLFNDIDSDQEPLYYEYLAQTSFPPGLFVQQSGNASGCDCVNGCGSGCLCEAKNSGEIAYDYNGTLIRQKPLIHECGSACQCPPSCRNRVTQKGLRNRLEVFRSLETGWGVRSLDVLHAGAFICEYAGVALTREQANILTMNGDTLVYPARFSSARWEDWGDLSQVLADFERPSYPDIPPVDFAMDVSKMRNVACYISHSTDPNVIVQFVLHDHNSLMFPRVMLFAAENIPPMTELSLDYGVVDDWNAKLAICN
notes: Endogenous protein searched for by mass spectrometry in Pol V purifications; also called SUVH2/9 peptides
As for B2, the binding result with NRPE1-Flag (Pol V) was “no binding”.

B3: SUVH2 (other)
chain: MSTLLPFPDLNLMPDSQSSTAGTTAGDTVVTGKLEVKSEPIEEWQTPPSSTSDQSANTDLIAEFIRISELFRSAFKPLQVKGLDGVSVYGLDSGAIVAVPEKENRELIEPPPGFKDNRVSTVVVSPKFERPRELARIAILGHEQRKELRQVMKRTRMTYESLRIHLMAESMKNHVLGQGRRRRSDMAAAYIMRDRGLWLNYDKHIVGPVTGVEVGDIFFYRMELCVLGLHGQTQAGIDCLTAERSATGEPIATSIVVSGGYEDDEDTGDVLVYTGHGGQDHQHKQCDNQRLVGGNLGMERSMHYGIEVRVIRGIKYENSISSKVYVYDGLYKIVDWWFAVGKSGFGVFKFRLVRIEGQPMMGSAVMRFAQTLRNKPSMVRPTGYVSFDLSNKKENVPVFLYNDVDGDQEPRHYEYIAKAVFPPGIFGQGGISRTGCECKLSCTDDCLCARKNGGEFAYDDNGHLLKGKHVVFECGEFCTCGPSCKSRVTQKGLRNRLEVFRSKETGWGVRTLDLIEAGAFICEYAGVVVTRLQAEILSMNGDVMVYPGRFTDQWRNWGDLSQVYPDFVRPNYPSLPPLDFSMDVSRMRNVACYISHSKEPNVMVQFVLHDHNHLMFPRVMLFALENISPLAELSLDYGLADEVNGKLAICN
notes: Endogenous protein, detected or searched for by mass spectrometry in immunoprecipitates; also called SUVH2 peptides
Consider B3, for which the binding result with NRPE1-Flag (Pol V) is given as “no binding”.

These data come from patent US20160017348A1 (University of California, published 2016).
